Test results: article PMC7540724

Target: Thermus thermophilus RodA (FLAG-3C-RodA) (Thermus thermophilus) (UniProt Q5SIX3)
Assay: crystal structure

For “Thermus thermophilus PBP2 (PBP2-3C-PrtC) (enzyme)”, the stoichiometry N (PBP2 per RodA) was 1.
